We go through one substance from patent US20140030274A1.

One test concerns the target Aβ(M1-42) (human). Briefly: cell-based or functional assay.
A further test has as its target Aβ(M1-40) (human). Briefly: cell-based or functional assay.

Sequence of Aβ(M1-40) (human) (peptide, as listed by the source): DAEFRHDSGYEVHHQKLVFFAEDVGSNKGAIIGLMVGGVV
Sequence of Aβ(M1-42) (human) (peptide, as listed by the source): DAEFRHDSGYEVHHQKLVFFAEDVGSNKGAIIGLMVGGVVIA

Consider “human anti-thrombin (from UniProt P01008 33-464)”, for which the effect on Aβ42 aggregation (ThT assay) (molar equivalents) in the test with Aβ(M1-42) (human) worked out at 0.1. Besides, the molar equivalents needed for the same inhibition of Aβ40 aggregation (ThT assay) (molar equivalents) in the test with Aβ(M1-40) (human) came out at 0.01.
